According to the DeepSol protein solubility set:

Experiment: soluble on expression in E. coli; label from the status in PepcDB or PDB records

Sequence	soluble on expression in E. coli
SLKKILILDDETSVLNALQRQLIRNNWQVISFKHPATALDYAKHVFFPIVITDYRMPQMSGVEFLLEFQKLQPYAYKIMLSGQAGEYGMTEAINQAKIDYFIHKPWDNCQLLNQIDKGLNHYRQTIKHLLKTNSKRMSREDYLIWYEKLVEQACPSITKVKKNPLGWIEAEEG	not soluble
IRNVGITFETRPDWAREEHVDEFLRLGGTKVEIGVQSVYDFVLSRMQRGHGVAEIVRANRVLRDSAFKVGFHMMPHLPGADSELDLRGFKKLFDDQRFRPDYLKIYPTLVTEGTPLYRMWKSGEYQALSDEEAAELVADIKAVLPKWVRLQRIQRDIPAHQIFAGVR	not soluble
MGSDKIHHHHHHMSADIVFDRGSPSDIDEIKTFTSNTWKVGYYTDLYSKLADTGTMDDYVDKVIERWVNDGSVYVLRVSGRPVATIHMEKLPDGSVMLGGLRVHPEYRGSRLGMSIMQETIQFLRGKTERLRSAVYSWNEPSLRLVHRLGFHQVEEYPIYTFQGGSTAVPALKPVNERYAGRWRCFFIDWKYMCSDDPDIIHEEYSNNLIVDGSTFVYFDIYEGGIDLFVNDSDDASSFIEKYRSMNGRITFYVRKALANGLPYVPASSLTVWEYRY	not soluble
MPDSSQLVIGAGLDGLPIAQAMRLANRHGLVAGATGTGKTVTLQRLAEAFSDAGVAVFAADIKGDLCGLGAAGNPQGKVAERIAGMPWLKHQPQAYPVTLWDIHGQSGHPLRTTLSEMGPLLLGSLLELTDSQQSALYAAFKVADREGLLLLDLKDLKALLNHLKDNPQLLGDDAALMTTGSSQALLRRLATLEQQGAEALFGEPALQLEDILQPAADGRGRIHLLDASRLVHEAPKVYATFLLWLLAELFEQLPERGDADKPLLALFFDEAHLLFAGTPKALQDRLEQVVRLIRSKGVGVYFVTQSPGDLPDNVLAQLGLRIQHGLRAFTAKEQKSLRAVADGFRPNPAFDAQAVLTELGIGEALVGTLQDKGTPEMVQRVLVAPPQSRIGPLTEAERQALIASSPLLGRYDKPIDRESAYEVLLGRKELAPQDQQPSGKAAAEEPSLADRAGEFLGTAAGQALKSAMRQAANQLGRQLVRGLMGSLLGGSKRR	soluble
MGSDKIHHHHHHRTKDQYYELRDFALGTSVRIVVSSQKINPRTIAEAILEDMKRITYKFSFTDERSVVKKINDHPNEWVEVDEETYSLIKAACAFAELTDGAFDPTVGRLLELWGFTGNYENLRVPSREEIEEALKHTGYKNVLFDDKNMRVMVKNGVKIDLGGIAKGYALDRARQIALSFDENATGFVEAGGDVRIIGPKFGKYPWVIGVKDPRGDDVIDYIYLKSGAVATSGDYERYFVVDGVRYHHILDPSTGYPARGVWSVTIIAEDATTADALSTAGFVMAGKDWRKVVLDFPNMGAHLLIVLEGGAIERSETFKLFERE	soluble
MRISGVTLFRVSSQLRNVVNGQWTTTHYTVKDRSTDPRWKDVDLARESDVYDVVIVGGGPSGLSAAIRLRQLAEKAQKELRVCVVEKASVIGGHTLSGAVIETRALDELIPNWKELGAPVYQQVTSESIAILTESGRIPVPVLPGVPLANHGNYIVRLGKVVQWLGEQAEAAGVEVWPEIAASEVLYNEDGSVKGIATSDVGIGKDGAPKDGFARGMEFHAKCTIFAEGCRGHLSKQVLDKFDLRTHAMTYGIGLKELWEIDPAKHRPGYVEHTMGWPLNVDQYGGSFLYHIEDQGQPLVSVGFVVALDYANPNLNPYKEFQKYKTHPSISKQLEGGKRIGYGARALNEGGFQSIPKLHFPGGCLVGCSAGFLNVAKLKGTHNAMKSGMVAAESIFEDIQQKGEDVQTIDPATYDKNIRDTYVVKELKATRNIRPSFNTSLGYIGGLIYSGIFYVFGRGIEPWTLGHGKKDNEKLIPVKDAKEIDYPKPDGKLTFDLLTSVSLTGTNHTEDQPAHLTLKNDQVPLDVNLAVYGGPEARFCPAGVYEFVPSEADESKKRLQINAQNCIHCKTCDIKDPQQNINWVTPEGGGGPKYEGM	not soluble
MGSDKIHHHHHHMQIEMTGITKAFGPVPVLKGVDFTLATGEIHALMGENGAGKSTLMKILTGVHKADQGTILVDGVEQQYKNPKLAEEAGIAFIHQELNILPDLTVTENLFLGRELKSRFGVLKQAEMKRLAERELAELNVFMDVNQLARTLSVGQQQMIEIAKALMTDAKVIIMDEPTAALTEREIRALFSVATALREQGVSIVYISHRMEEIFELCDRITVLRDGVSVSTHRIADTSFEQIVREMVGREMGERYPERQVTLGQTVLEVTGATGKRFEDVSFSVRAGEIVGFSGLMGAGRTEVMRGLFGIDRMKAGTISLNGKTIKIKSPHDAIKQGLGFLTEDRKGEGLFLDFSLRENISLPTIRSLSKSGVISDQSERQFAEGYLKSLSVRHSSMDQPAKSLSGGNQQKVVLAKWLGTKPDVLILDEPTRGVDVGAKKEIYMIMDELAATGVAIIMISSDLPEILGMSDRVYVMREGQMSGMLNQEEATQESIMTLATGGQ	not soluble
AIAARRNYQVERNKLEEKDPTWLMQKGQIQPLVSSLVVLNVEGERILARYTAKELFPTFDVEKKFEADLLKKSQTIPDLEERVFEHGQHIVVCRASEDLLFFVTSRIYENEVILSEVLTCWVDSLVKVLKNLPLNELNLLQHYEVLLLLVDELVDQEGVIMETDANELSSRTEFAMYSTDPRDLIPELTEQGFSHALQTAKQHLARTILK	soluble
MGSDKIHHHHHHMTQQVINSTSKNHLSPLENQKRYRVVLVHPSAGVNWSGGSEIFAIELARHLNSYFNVELLSGADCGSFSFPSGGISRTQAFNIVRHPLISKLLSRFASHPEIVIEHLSNFFPCAIQLLTKSADLIFPCNDYGGMAMAAFVRAIKGTPILFTEHVGLLGGGKSLTRNLRFHPDQLVVFSEAMAEFVRSVQPQQKVSIIPNGVDINRFTPVGNYINFGLPKPIVLCVASLKRHSHKRIGLAMEAVARLPQISLLLCGDGIDRDYFQAKGDELLGKERFKIQSFPYEQMPTVYRSADVFTLPSIDEPFGLAYVEAMASGLPVIATDDEMRRQIVGDAGRLCDVTNPDIYAAAIREILTQDWQVRARQKALGFSWENIALRYRELILKTIQGDQQNH	not soluble
MTSSDQSPSHDVFVYGSFQEPAVVNLILECAPVMVSAQLHGYHLYRLKGRLHPCISPSDNGLINGKILTGLTDSQLESLDMIEGTEYVRKTVEVVLTDTLEKKQVETIVWANKDDPNMYGEWDFEEWKRLHMEKFIEAATKFMEWKKNPNGRSREEFEKFVQDDSSPASA	soluble
MSAVEQFVSYCRDEIEIVARLVDLLEQEQKLLIRGESLQLEPLADRKSEVLDQLAAQSAQRGRLMESLGVQDKDTLYIWLADKPSACKEWTRLEDAVNRAQSINQLNAAFVDERLAQVESSLDVLRTAAASTLGYGPDGQPPELVSGRRLLGSA	not soluble
MQKVCEKRIDSVVASAVEGSGMFYAVRFEPPPSKTCFDVTLKTYGPPYTEYIVTVAIPPKFPFSPPAITCKTDKNMKFLFLEENQWKPSTGIVAVLIEACSVISRRDLVPRAPVLPRIRPPQARTPTSASPAKSPQKAD	not soluble
MKITHCKLKKKVQKELLRFFVLEVTARSAADILGIHPNSAVLFYRKIRMVISHYLALAANEVFEGSVELDESYFGGRRKGKRGRGAAGKVVVFGILKRNGRVYTVVVDNAKSDTLMPVIKQKIMPDSIVYTDSLSSYDKLDVSGFIHYRINHSKEFADRQNHINGIENFWNQAKRVLRK	not soluble
MYIAHIFRVSVAHLQFFNGPTTKNWAEPYQSIETSDTQSHITWQALIGRPFIFVEKKFLLFLSKKFSLVGNFPIPSNFADQFSSVSIPSESLPFSRKSFSDHHPWLPLISMESSWE	not soluble
GSHMLFAEFAEFCERLEKISSTLELTARIAAFLQKIEDERDLYDVVLFITGKVYPPWDERELGVGIGLLYEALENVSGVKRSEIESMIREYGDLGLVAEQLIKKKKMTTLAFEELTVRKVRETFDEIASLTGEGSMKRKIMLLTGLYGLATPLEARYLTRLILNEMRLGVGEGIMRDAIARAFRADPETVERAYMITNDLGRVAVVAKKEGEEGLRKMKIEIHIPVRMMLAQVAESLESAVREMRTAAVEWKFDGSRVQVHWDGSRVTIYSRRLENVTNALPDIVEEIKKSVKPGVILDGEVIAVKEGKPMPFQHVLRRFRRKHDVAKMVEKIPLEAHFFDILYHDGECIDLPLRERRKLLESAVNESEKIKLAKQIVTDSVDEVRKMYDEAISAGHEGVMIKLPSSPYIPGKRGKNWLKVKAIMETLDLVVVGGEWGEGKRSHWLSSFELACLDPVTGKLLKVGRVATGFTEEDLEELTEMFRPLIVSQQGKKVEFIPKYVFEVAYQEIQKSPKYESGYALRFPRFVRLRDDKDVDEADTIERVENLYKLQFEVKRQ	soluble
MRTSNYLLSTLKETPNDAEVVSHQLMLRAGMIRKLASGLYTWLPTGLRVLRKVENIVRQEIDNAGAVETLMPVVQPFELWEETGRSEKMGPELLRFTDRHVRPFVLSPTAEEVITSLVRNEVSSYKQLPLNLYQIQTKFRDERRPRFGVMRAREFCMMDAYSFDIDKAGLEKSYQAMHDAYCKAFDRMGLEYRPVLADSGAIGGSGSQEFHVLADSGEDLIAFSTESDYAANIEKAEALAPAVERAEPTQEMTLVDTPNAKTIAELVEQHGLPIEKTVKTLFVKASDEIDAPIIALIVRGDHELNEVKAENLPQVASPLEMASEEEIRELIGAGPGSLGPVGLELPFIVDRSVAVMSDFGAGANIDGKHYFGINWGRDVELGQVEDLRNVVEGDPSPCGKGTLMLK	not soluble
MSLPRFSNVSYEQYWALREQSDEWLEYIDGAVYMAPSPSIKHQLVSSNLHTELGLYFRGKPCNVFAAPTDIELASDKFPDRKVVIPDLSVICDSKGFTETKYVGVPTLIVEILSPSNQAHDLVTKFNLYMAYGVKEYWIVNPMKEAITVYTLNEEGLYEQADVKAGTGVVQSACFPRLEVALEDVFR	not soluble
MGSDKIHHHHHHMIDSSLVLDAETIRNFVKSVNDADSMDKVRAAVSSFAEELRSKSSENGISIREDVLKSILQRIASSHTTELARHYANEVYNMAFISRKLPYSDIDLSRWREYDFVITDSLWLFDKRDYRGSKLGWYWGNFVPQIPRQLILRFSRKDEWVLDPFSGSGTTLIEAKKLGRNSLGIEINEEVCKKSLEILNSIDGDGFSTAISGDSASVNLTKVMEYYGIPEFNLVIMHPPYHDIIKFTDIGGDLSNARDTKEFLSMLGKVTRNVSKYLQKGRFLALVIGDKYSNGEWIPLGFYSMQKVMDQGFRLKSTIVKNFEYTRGKASSSDLWRYRALAGGFYVFKHEYIFVFQKT	not soluble
MAMSFIKPIYQDINSILIGQKVKRPKSGTLSGHAAGEPFEKLVYKFLKENLSDLTFKQYEYLNDLFMKNPAIIGHEARYKLFNSPTLLFLLSRGKAATENWSIENLFEEKQNDTADILLVKDQFYELLDVKTRNISKSAQAPAIISAYKLAQTCAKMIDNKEFDLFDINYLEVDWELNGEDLVCVSTSFAELFKSEPSELYINWAAAMQIQFHVRDLDQGFNGTREEWAKSYLKHFVTQAEQRAISMIDKFVKPFKKYILRSRELVDPNSVQARLQDVDGTIDTRSKLAAAQLYTRASQPELAPEDPEDLEHHHHHH	soluble
MGSDKIHHHHHHMETDRLIIMDKLRAMRMFVRVVDAGSFSRVANELNVTTSMISKEIGRLEEDLGVRLLHRSTRGQQLTSIGEGYLKRCRELLVQVDDADAYVQHMQENPRGKLRINAPMALGITDLSQLFSAYMKQYPDVELDIQLGDESLDLIEHGFDLGFRASSQMLDSNYVGKPLVSFTYKVCASASYLESHPPIREVEDLAAHNCFVYSYFKSGNFWPLAQGITVAGSLKVNSTLFMKQVIEDGLGIGFLPSFVAREGIEQGKLVEVLPEVGRPDLTLYALYPNRLFTPPKLLSCIEFLQSWFLSRNLDEGWLQ	not soluble
